Source: PMC12226076, “Structural insights and rational design of Pseudomonasputida KT2440 omega transaminases for enhanced biotransformation of (R)-PAC to (1R, 2S)-Norephedrine” (The Journal of Biological Chemistry, 2025)

The molecules below were run on C[C@H](N)c1ccccc1 (assay: purified protein). Details: 20 mM pyruvate, 2 mM PLP, 50 mM HEPES pH 8.0, 30 °C, (S)-MBA 0-5 mM.
Format: biochemical, Pseudomonas putida

Molecule | Km [µM] | Vmax [µmol/min/mg] | kcat [s⁻¹] | kcat/Km [M⁻¹ s⁻¹]
TA_2799 (Pseudomonas putida KT2440; L322F) | 1068 ± 566 | 0.042 | 0.0296 ± 0.0006 | 27.7
TA_2799 (Pseudomonas putida KT2440; C324Y/L322F) | 1188 ± 122 |  | 0.02302 ± 0.000817 | 
TA_5182 (Pseudomonas putida KT2440; G119N) | 347 ± 24 | 0.003 | 0.00245 ± 3.33e-05 | 7.05
TA_5182 (Pseudomonas putida KT2440) | 1089 ± 117 | 0.007 | 0.0049 ± 0.000117 | 4.48
TA_2799 (Pseudomonas putida KT2440) | 6459 ± 621 | 0.104 | 0.072 ± 0.00465 | 11.1

These molecules were tested against T1, TA_2799 (Pseudomonas putida, UniProt Q88J50) (assay: X-ray crystal structure, […] Å). Details: covalent; internal aldimine with catalytic K286.
T1 construct: gene PP_2799; pET43.1b, 6xHis tag, expressed in E. coli BL21 (DE3), Ni-NTA; homodimer; catalytic K286
Format: binding

Molecule | X-ray crystal structure, 1.76 Å
Cc1ncc(COP(=O)(O)O)c(C=O)c1O [PLP] | covalently bound internal aldimine form of the PLP bound to the catalytic K286 residue
